From article PMC2854098 (Molecular Biology of the Cell, 2010) come the findings set out here.

This experiment addresses recombinant, active murine ERK2 protein (murine, UniProt P63085 1-358). The experiment in a line: pull-down.

B1: recombinant h1CaP-CBD (natural protein, ferret, UniProt Q9GK38 1-297, looked up)
chain: MSSAHFNRGPAYGLSAEVKNKLAQKYDHQREQELREWIEGVTGRRIGSNFMDGLKDGIILCEFINKLQPGSVKKVNESTQNWHQLENIGNFIKAITKYGVKPHDIFEANDLFENTNHTQVQSTLLALASMAKTKGNKVNVGVKYAEKQERKFEPEKLREGRNIIGLQMGTNKFASQQGMTAYGTRRHLYDPKLGTDQPLDQATISLQMGTNKGASQAGMTAPGTKRQIFEPGLGMEHCDTLNVSLQMGSNKGASQRGMTVYGLPRQVYDPKYCLTPEYPELGEPTHNHHAHNYYNSA
B1: the binding result is listed as “binds”.

B2: recombinant h3/acidic CaP-CBD (natural protein, rat, UniProt P37397 1-330, looked up)
chain: MTHFNKGPSYGLSAEVKNKIASKYDQQAEEDLRNWIEEVTGMGIGTNFQLGLKDGIILCELINKLQPGSVKKVNESSLNWPQLENIGNFIKAIQAYGMKPHDIFEANDLFENGNMTQVQTTLVALAGLAKTKGFHTTIDIGVKYAEKQTRRFDEGKLKAGQSVIGLQMGTNKCASQAGMTAYGTRRHLYDPKMQTDKPFDQTTISLQMGTNKGASQAGMSAPGTRRDIYDQKLTLQPVDNSTISLQMGTNKVASQKGMSVYGLGRQVYDPKYCAAPTEPVIHNGSQGTGTNGSEISDSDYQAEYPDEYHGEYPDEYPREYQYGDDQGIDY
B2: the binding result was “binds”.
